Measured values reported in FireProtDB (doi:10.1021/bi00011a035).

Details: Aspergillus oryzae (strain ATCC 42149 / RIB 40), 25 °C, GdnHCl, Absorbance, reversible: yes, whole UniProt chain shown

B1: Guanyl-specific ribonuclease T1 wild type, P00651 (protein)
chain: MMYSKLLTLTTLLLPTALALPSLVERACDYTCGSNCYSSSDVSTAQAAGYQLHEDGETVGSNSYPHKYNNYEGFDFSVSSPYYEWPILSSGDVYSGGSPGADRVVFNENNQLAGVITHTGASGNNFVECT
For B1, the denaturant m value (pH 3, beta-alanine 0.1 M) was 1.85 kcal/mol/M, the “denaturant midpoint (higher = more stable)” value (from here on “denaturant midpoint”) (pH 3, beta-alanine 0.1 M) was 2.42 M and the unfolding free energy (pH 3, beta-alanine 0.1 M) was 4.48 kcal/mol. For the same protein, the denaturant m value (pH 3.5, beta-alanine 0.1 M) was 1.7 kcal/mol/M, the “denaturant midpoint” value (pH 3.5, beta-alanine 0.1 M) was 3.4 M and the unfolding free energy (pH 3.5, beta-alanine 0.1 M) was 5.78 kcal/mol. For the same protein, the denaturant m value (pH 6, Bis-Tris 0.1 M) was 1.36 kcal/mol/M, the “denaturant midpoint” value (pH 6, Bis-Tris 0.1 M) was 6.49 M and the unfolding free energy (pH 6, Bis-Tris 0.1 M) was 8.82 kcal/mol. For the same protein, the denaturant m value (pH 7, HEPES 0.1 M) was 1.28 kcal/mol/M, the “denaturant midpoint” value (pH 7, HEPES 0.1 M) was 7.26 M and the unfolding free energy (pH 7, HEPES 0.1 M) was 9.26 kcal/mol. For the same protein, the denaturant m value (pH 8.5, taurine 0.1 M) was 1.21 kcal/mol/M, the “denaturant midpoint” value (pH 8.5, taurine 0.1 M) was 7.69 M and the unfolding free energy (pH 8.5, taurine 0.1 M) was 9.3 kcal/mol.
